Laboratory results reported in patent EP4477673A1, “IMMUNOCONJUGATE AND USE THEREOF” (priority 2022, dated 2023).
Positions count from the first letter of the chain named. Names and notes keep the numbering of the source.

Columns and labels:
[1] = molecular target: Human PD-1 antigen protein (Sino Biological, 10377-H08H) (human, UniProt Q15116 25-167); assay: SPR Biacore 8K, fusion protein captured by anti-human IgG (Fc), human PD-1 as analyte
[2] = molecular target: human PD-1 (human, UniProt Q15116 25-288); assay: cell-based or functional assay
Sequence of human PD-1 (Q15116 25-288 limits assumed): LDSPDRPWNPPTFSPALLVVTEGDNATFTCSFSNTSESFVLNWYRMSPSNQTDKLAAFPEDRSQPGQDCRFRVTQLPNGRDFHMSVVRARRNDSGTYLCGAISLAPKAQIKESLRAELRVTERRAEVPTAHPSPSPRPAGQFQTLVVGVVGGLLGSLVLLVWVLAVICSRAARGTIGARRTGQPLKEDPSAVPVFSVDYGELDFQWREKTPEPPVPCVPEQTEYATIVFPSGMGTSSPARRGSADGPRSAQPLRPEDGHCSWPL

[3] = test system: CD4^+ T cells stimulated with the CD3 antibody; assay: Proliferation experiment of T cells stimulated with a CD3 antibody (Ki-67, FACS); format: cell-based, human; conditions: 4 days
Description: (§1) T cells stimulated with CD3 antibodies highly express PD-1. To determine whether the PD-1-IL-2v with different IL-2 mutants described above can activate T cells among human peripheral blood mononuclear cells (PBMCs) that lowly express PD-1 and highly express PD-1, T cells were isolated from PBMCs and stimulated with a CD3 antibody. The effects of the fusion proteins described above on the proliferation of unstimulated and stimulated T cells were assessed. Proliferation experiment of T cells stimulated with a CD3 antibody: After frozen human PBMCs were thawed, T cells were obtained by isolation using a Pan T Cell Isolation Kit (Miltenyi, 130-096-535). The CD3 antibody was diluted with PBS to 0.1 µg/mL and added to a 10 cm culture dish. The dish was coated at 37 °C for 2 h and washed with PBS for later use. The T cells were plated at 2 × 10^6 cells/mL onto the 10 cm culture dish precoated with the CD3 antibody and stimulated at 37 °C with 5% CO2 for 24 h. The stimulated T cells were collected, washed, and counted, and the cell density was adjusted to 5 × 10^5 cells/mL. The cells were plated at 200 µL/well onto a 96-well plate. The test samples were serially diluted with culture medium to prepare 5× working solutions, and 50 µL of each concentration of the test samples was added to the stimulated T cells and mixed well. The plate was incubated for 4 days. After the drug treatment, the cells were washed twice with FACS buffer (PBS + 2% FBS), and dead cells were labeled with Fixable Viability Dye (eBioscience, 65-0865-14). After flow cytometry antibody staining with CD3 (BD, 565491), CD4 (BD, 558116), CD8 (BD, 565310), Ki-67 (eBioscience, 12-5698-82)), cell proliferation was examined by FACS.

[4] = test system: CD8^+ T cells stimulated with the CD3 antibody; assay: as above; format: cell-based, human; conditions: 4 days
Description: as §1

[5] = test system: unstimulated CD8^+ T cells; assay: Unstimulated T cell proliferation experiment (Ki-67, FACS); format: cell-based, human; conditions: 4 days
Description: (§2) T cells stimulated with CD3 antibodies highly express PD-1. To determine whether the PD-1-IL-2v with different IL-2 mutants described above can activate T cells among human peripheral blood mononuclear cells (PBMCs) that lowly express PD-1 and highly express PD-1, T cells were isolated from PBMCs and stimulated with a CD3 antibody. The effects of the fusion proteins described above on the proliferation of unstimulated and stimulated T cells were assessed. Unstimulated T cell proliferation experiment: The isolated T cells were counted and then plated at 5 × 10^5 cells/mL onto a 96-well plate at 200 µL/well. The test samples were serially diluted with culture medium to prepare 5× working solutions, and 50 µL of each concentration of the test samples was added to the stimulated T cells and mixed well. The plate was incubated for 4 days. After the drug treatment, the cells were washed twice with FACS buffer, and dead cells were labeled with FVD780. After flow cytometry antibody staining, cell proliferation was examined by FACS.

[6] = test system: unstimulated CD4^+ T cells; assay: as above; format: cell-based, human; conditions: 4 days
Description: as §2

Sequence of Human PD-1 antigen protein (Sino Biological, 10377-H08H) (Q15116 25-167 limits assumed): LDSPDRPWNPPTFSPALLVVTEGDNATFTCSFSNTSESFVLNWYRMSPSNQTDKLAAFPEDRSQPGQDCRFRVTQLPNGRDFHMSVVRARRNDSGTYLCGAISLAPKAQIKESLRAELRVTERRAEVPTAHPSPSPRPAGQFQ

B1: A-N88D-M08 (Fc fusion)
chain (part 1 of 2): EVQLVESGGGLVQPGGSLRLSCAASGLTFSDYSMSWYRQAPGKGRELVAIISGSGVITHYVDSVKGRFTISRDNAKNTLYLQMRSLRAEDTAVYYCRAVSDWQDYWGQGTQVTVSS
chain (part 2 of 2): GGGGSGGGGSGGGGSAPASSSTKKTQLQLEHLLLDLQMILQGISNYKNPKLTRMLTAKFYMPKKATELKHLQCLEEELKPLEEVLQGAQSKNFHLRPRDLISDINVIVLELKGSETTFMCEYADETATIVEFLNRWITFAQSIISTLT
chain: B1 chain (part 1 of 2)
notes: also called A-N88D-M8; not shown: IgG1 hinge (C220S) + Fc Knob chain as in A-N88D; IgG1 hinge (C220S) + Fc Hole chain as in A-N88D
Q: How did the Kd [1] turn out when B1 was run?
A: The Kd was 12.3 nM.

Q: What about the koff [1] of the same molecule?
A: The koff was 0.00264 s⁻¹.

Q: And the kon [1]?
A: The kon was 215000 M⁻¹ s⁻¹.

Q: And the “M07e-hPD-1 cell proliferation ratio (%) at 0.0001 nM” value [2]?
A: Its value is 3.8%.

Q: And the “M07e-hPD-1 cell proliferation ratio (%) at 0.001 nM” value [2]?
A: The value was 4.5%.

Q: And the “M07e-hPD-1 cell proliferation ratio (%) at 0.01 nM” value [2]?
A: The value was 11.9%.

Q: And the “M07e-hPD-1 cell proliferation ratio (%) at 0.1 nM” value [2]?
A: Its value is 27.3%.

Q: What about the “M07e-hPD-1 cell proliferation ratio (%) at 1 nM” value [2] of the same molecule?
A: The value was 36%.

Q: What about the “M07e-hPD-1 cell proliferation ratio (%) at 10 nM” value [2] of the same molecule?
A: Its value is 35.5%.

Q: What about the “M07e-hPD-1 cell proliferation ratio (%) at 100 nM” value [2] of the same molecule?
A: Its value is 35.5%.

Q: What about the “M07e-hPD-1 cell proliferation ratio (%) at 1000 nM” value [2] of the same molecule?
A: Its value is 44.2%.

B2: A-N88D-M27 (Fc fusion)
chain (part 1 of 2): B1 chain (part 1 of 2) with D31S, V56G
chain (part 2 of 2): B1 chain (part 2 of 2)
chain: B1 chain (part 1 of 2) with D31S, V56G
notes: not shown: IgG1 hinge (C220S) + Fc Knob chain as in A-N88D; IgG1 hinge (C220S) + Fc Hole chain as in A-N88D
Q: Which results are given for B2?
A: Kd [1]: 74.3 nM; koff [1]: 0.0102 s⁻¹; kon [1]: 137000 M⁻¹ s⁻¹; M07e-hPD-1 cell proliferation ratio (%) at 0.0001 nM [2]: 7.5%; M07e-hPD-1 cell proliferation ratio (%) at 0.001 nM [2]: 4.9%; M07e-hPD-1 cell proliferation ratio (%) at 0.01 nM [2]: 4.9%; M07e-hPD-1 cell proliferation ratio (%) at 0.1 nM [2]: 9.3%; M07e-hPD-1 cell proliferation ratio (%) at 1 nM [2]: 21.1%; M07e-hPD-1 cell proliferation ratio (%) at 10 nM [2]: 31.9%; M07e-hPD-1 cell proliferation ratio (%) at 100 nM [2]: 39.5%; M07e-hPD-1 cell proliferation ratio (%) at 1000 nM [2]: 60%

B3: A-N88D-M28 (Fc fusion)
chain (part 1 of 2): B1 chain (part 1 of 2) with D31S, V56G, V61A
chain (part 2 of 2): B1 chain (part 2 of 2)
chain: B1 chain (part 1 of 2) with D31S, V56G, V61A
notes: as for B2
Q: With B3 as the molecule, how does the Kd [1] read?
A: Its Kd is 134 nM.

Q: And the koff [1]?
A: The koff was 0.0198 s⁻¹.

Q: And the kon [1]?
A: The kon was 148000 M⁻¹ s⁻¹.

Q: What about the “M07e-hPD-1 cell proliferation ratio (%) at 0.0001 nM” value [2] of the same molecule?
A: The value was 7.2%.

Q: What about the “M07e-hPD-1 cell proliferation ratio (%) at 0.001 nM” value [2] of the same molecule?
A: Its value is 6.3%.

Q: And the “M07e-hPD-1 cell proliferation ratio (%) at 0.01 nM” value [2]?
A: The value was 9.4%.

Q: What about the “M07e-hPD-1 cell proliferation ratio (%) at 0.1 nM” value [2] of the same molecule?
A: Its value is 7.6%.

Q: What about the “M07e-hPD-1 cell proliferation ratio (%) at 1 nM” value [2] of the same molecule?
A: The value was 12.4%.

Q: And the “M07e-hPD-1 cell proliferation ratio (%) at 10 nM” value [2]?
A: Its value is 19.1%.

Q: What about the “M07e-hPD-1 cell proliferation ratio (%) at 100 nM” value [2] of the same molecule?
A: The value was 34.4%.

Q: What about the “M07e-hPD-1 cell proliferation ratio (%) at 1000 nM” value [2] of the same molecule?
A: The value was 51.3%.

B4: A-N88D-M15 (Fc fusion)
chain (part 1 of 2): B1 chain (part 1 of 2) with V56G, Q103E
chain (part 2 of 2): B1 chain (part 2 of 2)
chain: B1 chain (part 1 of 2) with V56G, Q103E
notes: as for B2
Q: What does the source list for B4?
A: Kd [1]: 29.3 nM; koff [1]: 0.00706 s⁻¹; kon [1]: 241000 M⁻¹ s⁻¹; M07e-hPD-1 cell proliferation ratio (%) at 0.0001 nM [2]: 8.9%; M07e-hPD-1 cell proliferation ratio (%) at 0.001 nM [2]: 4.1%; M07e-hPD-1 cell proliferation ratio (%) at 0.01 nM [2]: 7%; M07e-hPD-1 cell proliferation ratio (%) at 0.1 nM [2]: 17%; M07e-hPD-1 cell proliferation ratio (%) at 1 nM [2]: 32.9%; M07e-hPD-1 cell proliferation ratio (%) at 10 nM [2]: 41.6%; M07e-hPD-1 cell proliferation ratio (%) at 100 nM [2]: 54.9%; M07e-hPD-1 cell proliferation ratio (%) at 1000 nM [2]: 47.7%

B5: A-N88D-M26 (Fc fusion)
chain (part 1 of 2): B1 chain (part 1 of 2) with D31S, V56G, Q103E
chain (part 2 of 2): B1 chain (part 2 of 2)
chain: B1 chain (part 1 of 2) with D31S, V56G, Q103E
notes: as for B2
Q: How did the Kd [1] turn out when B5 was run?
A: Its Kd is 53.1 nM.

Q: What about the koff [1] of the same molecule?
A: Its koff is 0.00948 s⁻¹.

Q: What about the kon [1] of the same molecule?
A: Its kon is 179000 M⁻¹ s⁻¹.

Q: And the “M07e-hPD-1 cell proliferation ratio (%) at 0.0001 nM” value [2]?
A: The value was 3.7%.

Q: What about the “M07e-hPD-1 cell proliferation ratio (%) at 0.001 nM” value [2] of the same molecule?
A: The value was 4.8%.

Q: And the “M07e-hPD-1 cell proliferation ratio (%) at 0.01 nM” value [2]?
A: Its value is 9.3%.

Q: And the “M07e-hPD-1 cell proliferation ratio (%) at 0.1 nM” value [2]?
A: The value was 10.7%.

Q: And the “M07e-hPD-1 cell proliferation ratio (%) at 1 nM” value [2]?
A: Its value is 23.2%.

Q: What about the “M07e-hPD-1 cell proliferation ratio (%) at 10 nM” value [2] of the same molecule?
A: The value was 37%.

Q: And the “M07e-hPD-1 cell proliferation ratio (%) at 100 nM” value [2]?
A: The value was 43.1%.

Q: And the “M07e-hPD-1 cell proliferation ratio (%) at 1000 nM” value [2]?
A: Its value is 54.4%.

B6: PEG-IL-2v (conjugate)
chain: APASSSTKKTQLQLEHLLLDLQMILQGISNYKNPKLTRMLTAKFYMPKKATELKHLQCLEEELKPLEEVLQGAQSKNFHLRPRDLISNINVIVLELKGSETTFMCEYADETATIVEFLNRWITFAQSIISTLT
Q: For B6, which “CD4^+ Ki67^+ cells (%)” value ([3]; 0.001 nM) is on record?
A: The value was 32.9%.

Q: What about the “CD4^+ Ki67^+ cells (%)” value ([3]; 0.01 nM) of the same molecule?
A: The value was 34.8%.

Q: And the “CD4^+ Ki67^+ cells (%)” value ([3]; 0.1 nM)?
A: The value was 43.3%.

Q: What about the “CD4^+ Ki67^+ cells (%)” value ([3]; 1 nM) of the same molecule?
A: Its value is 63%.

Q: What about the “CD4^+ Ki67^+ cells (%)” value ([3]; 10 nM) of the same molecule?
A: Its value is 73%.

Q: And the “CD4^+ Ki67^+ cells (%)” value ([3]; 100 nM)?
A: Its value is 74.7%.

Q: What about the “CD8^+ Ki67^+ cells (%)” value ([4]; 0.001 nM) of the same molecule?
A: Its value is 55.5%.

Q: What about the “CD8^+ Ki67^+ cells (%)” value ([4]; 0.01 nM) of the same molecule?
A: Its value is 55.5%.

Q: And the “CD8^+ Ki67^+ cells (%)” value ([4]; 0.1 nM)?
A: The value was 67.1%.

Q: What about the “CD8^+ Ki67^+ cells (%)” value ([4]; 1 nM) of the same molecule?
A: Its value is 76.6%.

Q: And the “CD8^+ Ki67^+ cells (%)” value ([4]; 10 nM)?
A: The value was 82%.

Q: And the “CD8^+ Ki67^+ cells (%)” value ([4]; 100 nM)?
A: The value was 82.5%.

Q: What about the “CD8^+ Ki67^+ cells (%)” value ([5]; 0.001 nM) of the same molecule?
A: Its value is 0.22%.

Q: What about the “CD8^+ Ki67^+ cells (%)” value ([5]; 0.01 nM) of the same molecule?
A: The value was 0.59%.

Q: And the “CD8^+ Ki67^+ cells (%)” value ([5]; 0.1 nM)?
A: Its value is 0.29%.

Q: And the “CD8^+ Ki67^+ cells (%)” value ([5]; 1 nM)?
A: The value was 1.54%.

Q: And the “CD8^+ Ki67^+ cells (%)” value ([5]; 10 nM)?
A: Its value is 43%.

Q: What about the “CD8^+ Ki67^+ cells (%)” value ([5]; 100 nM) of the same molecule?
A: The value was 87.3%.

Q: And the “CD4^+ Ki67^+ cells (%)” value ([6]; 0.001 nM)?
A: Its value is 0.29%.

Q: And the “CD4^+ Ki67^+ cells (%)” value ([6]; 0.01 nM)?
A: The value was 1.51%.

Q: What about the “CD4^+ Ki67^+ cells (%)” value ([6]; 0.1 nM) of the same molecule?
A: The value was 1.38%.

Q: What about the “CD4^+ Ki67^+ cells (%)” value ([6]; 1 nM) of the same molecule?
A: Its value is 1.77%.

Q: What about the “CD4^+ Ki67^+ cells (%)” value ([6]; 10 nM) of the same molecule?
A: Its value is 10.2%.

Q: What about the “CD4^+ Ki67^+ cells (%)” value ([6]; 100 nM) of the same molecule?
A: The value was 45%.
